Data published in article PMC8213806 (Nature Communications, 2021).

B1: Repeat1-Fc (CSPG4 Repeat1, residues 410–551, fused to the N-terminus of human IgG1 Fc) (Fc fusion)
chain: ELPEPCVPEPGLPPVFANFTQLLTISPLVVAEGGTAWLEWRHVQPTLDLMEAELRKSQVLFSVTRGARHGELELDIPGAQARKMFTLLDVVNRKARFIHDGSEDTSDQLVLEVSVTARVPMPSCLRRGQTYLLPIQVNPVND
notes: also called CSPG4 decoy; source: FreeStyle HEK 293 cells, secreted, purified (Ni-NTA); not shown: Fc (human IgG1), C-terminal, kept
B2: CSPG4^mini (human CSPG4 residues 30–764: two laminin G motifs and first two CSPG repeats) (domain or fragment)
chain: ASFFGENHLEVPVATALTDIDLQLQFSTSQPEALLLLAAGPADHLLLQLYSGRLQVRLVLGQEELRLQTPAETLLSDSIPHTVVLTVVEGWATLSVDGFLNASSAVPGAPLEVPYGLFVGGTGTLGLPYLRGTSRPLRGCLHAATLNGRSLLRPLTPDVHEGCAEEFSASDDVALGFSGPHSLAAFPAWGTQDEGTLEFTLTTQSRQAPLAFQAGGRRGDFIYVDIFEGHLRAVVEKGQGTVLLHNSVPVADGQPHEVSVHINAHRLEISVDQYPTHTSNRGVLSYLEPRGSLLLGGLDAEASRHLQEHRLGLTPEATNASLLGCMEDLSVNGQRRGLREALLTRNMAAGCRLEEEEYEDDAYGHYEAFSTLAPEAWPAMELPEPCVPEPGLPPVFANFTQLLTISPLVVAEGGTAWLEWRHVQPTLDLMEAELRKSQVLFSVTRGARHGELELDIPGAQARKMFTLLDVVNRKARFIHDGSEDTSDQLVLEVSVTARVPMPSCLRRGQTYLLPIQVNPVNDPPHIIFPHGSLMVILEHTQKPLGPEVFQAYDPDSACEGLTFQVLGTSSGLPVERRDQPGEPATEFSCRELEAGSLVYVHRGGPAQDLTFRVSDGLQASPPATLKVVAIRPAIQIHRSTGLRLAQGSAMPILPANLSVETNAVGQDVSVLFRVTGALQFGELQKQGAGGVEGAEWWATQAFHQRDVEQGRVRYLSTDPQHHAYDTVENLALEVQ
notes: source: FreeStyle HEK 293 cells, secreted, purified (Ni-NTA, Superdex-200)
B3: His-tagged CSPG4 Repeat1 (residues 410–551), biotinylated (domain or fragment)
chain: B1 chain
modifications: biotinylated using EZ-Link NHS-PEG4-Biotin at pH 6.5
notes: also called His-tagged Repeat1; source: FreeStyle HEK 293 cells, secreted, purified (Ni-NTA); not shown: 8xHis, N-terminal, kept

Target: T1, TcdB1 holotoxin (VPI10463 strain), recombinant full-length, from Bacillus megaterium (Clostridioides difficile (VPI10463 …, UniProt P18177 1-2366))
T1 construct: source: Bacillus megaterium, purified as described previously
Test: BLI
Details: both partners purified

Binder	Kd [nM]	koff [s⁻¹]	kon [M⁻¹ s⁻¹]	binding result
B1	~15.2	~0.000108	~7060	
B2				binds
B3				binds
